Measurements taken from publication PMC5830446, “Spatial specificity of auxin responses coordinates wood formation”.

Molecular target: T1, ARF5 DNA-binding domain (ARF5-DBD) (UniProt P93024 120-274)
T1 sequence: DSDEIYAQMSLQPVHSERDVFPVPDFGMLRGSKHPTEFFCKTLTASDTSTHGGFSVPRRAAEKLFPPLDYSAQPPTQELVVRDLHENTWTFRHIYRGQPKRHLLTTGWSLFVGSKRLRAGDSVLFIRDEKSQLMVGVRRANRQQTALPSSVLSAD
Assay: EMSA; EMSA: 12.5 pmol ARF5-DBD (doubled in competition), 200 fmol Cy5 probe, 10 mM Tris-HCl pH 7.4, 75 mM NaCl, 50 ng/ul poly(dI-dC), 1 mM DTT, 20 min room temperature; 6% native gel, 0.5x TBE
Settings: protein: recombinant; tags: 6xHis-MBP removed by TEV protease; label: 5' Cy5 (both strands); blunt

| Binder | binding result |
| --- | --- |
| WOX4a (dsDNA) DNA 1: GCTCCATGCAGACATGAACATA DNA 2: TATGTTCATGTCTGCATGGAGC | binds |
| WOX4b (dsDNA) DNA 1: AATCTGTCATTACCGACATAGT DNA 2: ACTATGTCGGTAATGACAGATT | no binding |
